Experimental data taken from the supplement of paper PMC10567573.

Test: protein stability index of a GFP-peptide fusion (GPS, HEK-293T) (PSI 1-6); higher = more stable
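Note: lentivirally expressed fusions sorted by FACS into six bins by GFP to DsRed ratio, PSI derived from sequencing read proportions per bin multiplied by bin number.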

## YGLQGGMAFLDKRLQVKEHQHEEI
parent: IOH37933_38, c terminus: a fixed tail appended
  protein stability index: 2.62

## VFGRGDNISDVSKFLEDDKWMEE [CROP WT]
parent: IOH29119_14, c terminus: native
  protein stability index: 1.95

## FQEYDTDCEVFRQRFRQFQYREAA
parent: IOH29221_4, c terminus: a fixed tail appended
  protein stability index: 2.58

## PCAGSTSLSHSPGCSSTQGNGRPG
parent: IOH28989_16, c terminus: a fixed tail appended
  protein stability index: 3.04

## FHALVREIRRKEKEAVLAMEKKSK [RIT1 WT]
parent: IOH29584_30, c terminus: a fixed tail appended
  protein stability index: 1.93

## DCMGIDRQHIPDTYLCERCQPRNL
parent: IOH39874_25, c terminus: a fixed tail appended
  protein stability index: 2.99

## HKKKSPGEKPHRCPQCGKCFARKS
parent: IOH29221_53, c terminus: a fixed tail appended
  protein stability index: 3.46

## IPPYSRASLKGYQWLKDKILSEEG
parent: IOH29625_44, c terminus: a fixed tail appended
  protein stability index: 1.84

## CALNALTTTVCLVAAALRYLQIFA
parent: IOH35782_16, c terminus: a fixed tail appended
  protein stability index: 2.77

## PRCDLVDLGEGKICFCCEEFQPAK
parent: IOH35782_7, c terminus: a fixed tail appended
  protein stability index: 2.92

## YVDVVFANRPDPNTPMEETVRAMT
parent: IOH29625_26, c terminus: a fixed tail appended
  protein stability index: 1.96

## YVASHKIEKEEQEKKRKEEEERRR [ACBD3 WT]
parent: IOH39821_30, c terminus: a fixed tail appended
  protein stability index: 2.71

## PILRLLPQGISPVSQHWATWALYN
parent: IOH29391_115, c terminus: a fixed tail appended
  protein stability index: 3.03

## YRHQRLHTGERPYECTVCKKRFTR
parent: IOH29221_62, c terminus: a fixed tail appended
  protein stability index: 2.36

## VFQHHQYLSPLERKRLAREMQLSE [VENTX WT]
parent: IOH36691_19, c terminus: a fixed tail appended
  protein stability index: 2.52

## HTGERPYECTVCKKRFTRRSHLIG
parent: IOH29221_63, c terminus: a fixed tail appended
  protein stability index: 2.07

## FGIEIEVTDINDNAPKFQAENLDV
parent: IOH36207_21, c terminus: a fixed tail appended
  protein stability index: 2.77

## RIHSGEEPHKCPECGKRFLRSSDL
parent: IOH29221_58, c terminus: a fixed tail appended
  protein stability index: 3.27

## HFKKTKKMGGKDFSFRYQQELEEE
parent: IOH37933_67, c terminus: a fixed tail appended
  protein stability index: 2.21

## YINFRHLYKQRRRRYGQKKKKIH
parent: IOH29075_58, c terminus: native
  protein stability index: 2.11

## FDGPEAWGVCEPQREEVEERMWAA
parent: IOH29391_108, c terminus: a fixed tail appended
  protein stability index: 2.7

## YSFYMLTCIDMDWKVLTWLRYTLW
parent: IOH29075_44, c terminus: a fixed tail appended
  protein stability index: 2.31

## VTLELSQLSMLPHLADLVSYSIQK
parent: IOH39811_37, c terminus: a fixed tail appended
  protein stability index: 2.42

## GSEAAVIPLDLGCTQVTQDGDIPN
parent: IOH35782_37, c terminus: a fixed tail appended
  protein stability index: 5.39

## RDAIEALCRRLNTLNKCAVMKLEI
parent: IOH28890_83, c terminus: a fixed tail appended
  protein stability index: 2.68

## QLDKNSEVYQEVQAMFDTLGIPKS [FAM98B WT]
parent: IOH35542_24, c terminus: a fixed tail appended
  protein stability index: 3.16

## YQLGEEALLKFREDEGFVREEEDR
parent: IOH29649_44, c terminus: a fixed tail appended
  protein stability index: 4.53

## YSLELGKAIKQKLWEALCSQGAIS [C22orf31 WT]
parent: IOH35430_40, c terminus: a fixed tail appended
  protein stability index: 2.63

## TLHQRTHTEERPFKCNYCGKSFRQ
parent: IOH29221_76, c terminus: a fixed tail appended
  protein stability index: 2.24

## SLPLQDELAFAEDLVLDEEGARAA
parent: IOH39702_47, c terminus: a fixed tail appended
  protein stability index: 3.08

## QLTGHQRIHSGEEPHKCPECGKRF
parent: IOH29221_57, c terminus: a fixed tail appended
  protein stability index: 4.05

## LGVAQRSLPLQDELAFAEDLVLDE
parent: IOH39702_46, c terminus: a fixed tail appended
  protein stability index: 2.84

## LIKFQVGLKKLNLHEEEHVLLMAI
parent: IOH39811_53, c terminus: a fixed tail appended
  protein stability index: 2.28

## YKVKERLGTLKNPPKKKMKLMSG
parent: IOH28989_68, c terminus: native
  protein stability index: 1.99

## LKASMRELGLLIFFLFIGVILFSS [KCNA1 WT]
parent: IOH35854_54, c terminus: a fixed tail appended
  protein stability index: 2.1

## FHELQMQVTASDSGDPPLSSNVSL
parent: IOH36207_89, c terminus: a fixed tail appended
  protein stability index: 2.17

## EKALASILLQDHIRDLDVVVVSVA
parent: IOH37933_8, c terminus: a fixed tail appended
  protein stability index: 2.89

## NDDSADYQHFLQDCVDGLFKEVKE
parent: IOH28890_220, c terminus: a fixed tail appended
  protein stability index: 2.66

## NLAGFILGCQGAQFVSSVPRCDLV
parent: IOH35782_4, c terminus: a fixed tail appended
  protein stability index: 2.97

## YSCPATNECEITKRRRKSCQACRF [ESRRG WT]
parent: IOH39815_24, c terminus: a fixed tail appended
  protein stability index: 3.16

## CTHCSKSFRQRAGLIMHQVTHFRG
parent: IOH29221_83, c terminus: a fixed tail appended
  protein stability index: 2

## EPHKCPECGKRFLRSSDLYRHQRL
parent: IOH29221_59, c terminus: a fixed tail appended
  protein stability index: 3.96

## RLRGLLRVLRGRPGAGSRRRGRMA [FBXO33 WT]
parent: IOH28939_7, c terminus: a fixed tail appended
  protein stability index: 2.16

## KEMARKVIEHCSNFKEENMDTSR
parent: IOH29391_126, c terminus: native
  protein stability index: 3.58

## SSIIHEIDSILGNKPYSKKDYRS
parent: IOH29625_62, c terminus: native
  protein stability index: 2.88

## QELEEEIKELYENFCKHNGSKNVF
parent: IOH37933_70, c terminus: a fixed tail appended
  protein stability index: 2.68

## FSFRYQQELEEEIKELYENFCKHN
parent: IOH37933_69, c terminus: a fixed tail appended
  protein stability index: 2.5

## VAAALRYLQIFATRRSCIDESQIS
parent: IOH35782_18, c terminus: a fixed tail appended
  protein stability index: 1.98

## TGTSNTTAIKSIEFARKGSCFLIN [RBBP5 WT]
parent: IOH28957_33, c terminus: a fixed tail appended
  protein stability index: 2.08

## RFSRQCVVDKDKRNQCRYCRLKKC [HNF4A WT]
parent: IOH35808_17, c terminus: a fixed tail appended
  protein stability index: 2.46

## AEVVKIRDSFSNQNTETKDTKSR
parent: IOH28890_253, c terminus: native
  protein stability index: 2.4

## YQSGGRLKRPVNVPFDIFTEEVKF
parent: IOH29649_40, c terminus: a fixed tail appended
  protein stability index: 1.82

## HDDGYMICCDKCSVWQHIDCMGID
parent: IOH39874_22, c terminus: a fixed tail appended
  protein stability index: 2.33
